Data as given in publication PMC9391438, “Structures of L-BC virus and its open particle provide insight into Totivirus capsid assembly” (Communications Biology, 2022).

Target: the molecule itself
Assay: cryo-EM structure; L-BC particles purified from yeast, vitrified in 20 mM Tris-HCl pH 7.5, 50 mM KCl, 10 mM MgCl2; empty particle 2.9 Å and virion 3.7 Å (icosahedral symmetry), open particle 10 Å (C5) and 12 Å (C1)

B1: L-BC virus capsid protein (Saccharomyces cerevisiae virus L-BCLa) (natural protein)
chain: MSSLLNSLLPEYFKPKTNLNINSSRVQYGFNARIDMQYEDDSGTRKGSRPNAFMSNTVAFIGNYEGIIVDDIPILDGLRADIFDTHGDLDMGLVEDALSKSTMIRRNVPTYTAYASELLYKRNLTSLFYNMLRLYYIKKWGSIKYEKDAIFYDNGHACLLNRQLFPKSRDASLESSLSLPEAEIAMLDPGLEFPEEDVPAILWHGRVSSRATCILGQACSEFAPLAPFSIAHYSPQLTRKLFVNAPAGIEPSSGRYTHEDVKDAITILVSANQAYTDFEAAYLMLAQTLVSPVPRTAEASAWFINAGMVNMPTLSCANGYYPALTNVNPYHRLDTWKDTLNHWVAYPDMLFYHSVAMIESCYVELGNVARVSDSDAINKYTFTELSVQGRPVMNRGIIVDLTLVAMRTGREISLPYPVSCGLTRTDALLQGTEIHVPVVVKDIDMPQYYNAIDKDVIEGQETVIKVKQLPPAMYPIYTYGINTTEFYSDHFEDQVQVEMAPIDNGKAVFNDARKFSKFMSIMRMMGNDVTATDLVTGRKVSNWADNSSGRFLYTDVKYEGQTAFLVDMDTVKARDHCWVSIVDPNGTMNLSYKMTNFRAAMFSRNKPLYMTGGSVRTIATGNYRDAAERLRAMDETLRLKPFKITEKLDFRVAAYAIPSLSGSNMPSLHHQEQLQISEVDAEPINPIGEDELPPDIE
notes: Capsid protein of Saccharomyces cerevisiae virus L-BCLa (L-BC), as found in virus particles from yeast; genome NC_001641.1; the model has 1316 resolved residues for the two copies (A and B) of the icosahedral asymmetric unit; The same chain takes two conformations (A and B) in the capsid; no density for it was resolved; also called A subunit; B subunit
With B1 the “stoichiometry N” value was 120.
